In publication PMC7545097, “Mapping the native interaction surfaces of PREP1 with PBX1 by cross-linking mass-spectrometry and mutagenesis” (Scientific Reports, 2020):
Substitutions are numbered along the chain they refer to. Numbers in names are those of the source. Read-outs that look alike come from different tables or passages of the source.

T1: PBX1_(1-430), wild-type recombinant (human, UniProt P40424 1-430)
T1 construct: also called wild-type PBX1; purified recombinant human PBX1; source: E. coli, purified
T1 sequence (looked up): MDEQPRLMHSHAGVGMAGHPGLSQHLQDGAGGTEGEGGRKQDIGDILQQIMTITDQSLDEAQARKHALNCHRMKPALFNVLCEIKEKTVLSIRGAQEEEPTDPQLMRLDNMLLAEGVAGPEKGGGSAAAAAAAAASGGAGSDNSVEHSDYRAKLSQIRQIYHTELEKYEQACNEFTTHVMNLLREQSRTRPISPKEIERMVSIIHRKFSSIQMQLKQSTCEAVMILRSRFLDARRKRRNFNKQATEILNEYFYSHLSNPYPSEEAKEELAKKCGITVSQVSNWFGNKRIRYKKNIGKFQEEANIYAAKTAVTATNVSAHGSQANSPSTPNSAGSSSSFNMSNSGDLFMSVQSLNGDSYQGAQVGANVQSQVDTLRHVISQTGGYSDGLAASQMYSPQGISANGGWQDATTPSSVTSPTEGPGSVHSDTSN

T2: PREP1_(1-436), wild-type recombinant (TR-FIA) (UniProt P55347 1-436)
T2 construct: also called wild-type PREP1; PKNOX1; source: E. coli, purified
T2 sequence (looked up): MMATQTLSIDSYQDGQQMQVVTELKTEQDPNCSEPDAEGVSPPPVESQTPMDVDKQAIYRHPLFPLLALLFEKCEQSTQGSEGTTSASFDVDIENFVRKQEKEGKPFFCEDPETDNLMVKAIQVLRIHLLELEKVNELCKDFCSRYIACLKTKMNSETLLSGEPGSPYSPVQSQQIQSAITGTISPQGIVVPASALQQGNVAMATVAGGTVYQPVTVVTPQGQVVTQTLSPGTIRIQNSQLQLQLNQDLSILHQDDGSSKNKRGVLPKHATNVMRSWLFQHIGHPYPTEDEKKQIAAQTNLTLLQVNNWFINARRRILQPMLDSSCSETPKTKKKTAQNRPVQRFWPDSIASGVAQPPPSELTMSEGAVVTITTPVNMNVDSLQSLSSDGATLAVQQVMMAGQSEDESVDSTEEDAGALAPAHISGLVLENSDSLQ

B1: PBX1 I84A (natural protein, human, UniProt P40424 1-430, looked up)
chain: T1 sequence (looked up) with I84A
notes: PBX1, residues 1-430; source: E. coli, purified
B2: PBX1 L81A (natural protein, human, UniProt P40424 1-430, looked up)
chain: T1 sequence (looked up) with L81A
notes: as for B1
B3: PBX1 V80A/L81A (natural protein, human, UniProt P40424 1-430, looked up)
chain: T1 sequence (looked up) with V80A, L81A
notes: as for B1
B4: PBX1 L77A/V80A/L81A (natural protein, human, UniProt P40424 1-430, looked up)
chain: T1 sequence (looked up) with L77A, V80A, L81A
notes: as for B1
B5: PBX1 L112A (natural protein, human, UniProt P40424 1-430, looked up)
chain: T1 sequence (looked up) with L112A
notes: PBX1, residues 1-430; single alanine substitution; source: E. coli, purified
B6: PREP1 L132A (natural protein, UniProt P55347 1-436, looked up)
chain: T2 sequence (looked up) with L132A
notes: PREP1 (PKNOX1), residues 1-436
B7: PBX1 L105A (natural protein, human, UniProt P40424 1-430, looked up)
chain: T1 sequence (looked up) with L105A
notes: as for B5
B8: PBX1 L77A/V80A (natural protein, human, UniProt P40424 1-430, looked up)
chain: T1 sequence (looked up) with L77A, V80A
notes: as for B1
B9: PBX1 L105A/L108A/L112A (natural protein, human, UniProt P40424 1-430, looked up)
chain: T1 sequence (looked up) with L105A, L108A, L112A
notes: as for B1
B10: PBX1 L77A/I84A (natural protein, human, UniProt P40424 1-430, looked up)
chain: T1 sequence (looked up) with L77A, I84A
notes: as for B1
B11: PBX1 V80A (natural protein, human, UniProt P40424 1-430, looked up)
chain: T1 sequence (looked up) with V80A
notes: as for B1
B12: PBX1 L108A (natural protein, human, UniProt P40424 1-430, looked up)
chain: T1 sequence (looked up) with L108A
notes: as for B5
B13: PBX1 L105A/L108A (natural protein, human, UniProt P40424 1-430, looked up)
chain: T1 sequence (looked up) with L105A, L108A
notes: as for B1

How the values were obtained:
[1] = molecular target: T1, PBX1_(1-430), wild-type recombinant; experiment: time-resolved fluorescence immunoassay (TR-FIA); plate coated with monoclonal anti-PBX1; PBX1 pre-incubated with PREP1 or MEIS1 for 1 h on ice, 10 µg/mL in 1% BSA PBS, 1 h at room temperature on the plate; detected with anti-PREP1 or biotinylated anti-MEIS1/2 and Eu^3+ conjugates; normalised to the wild-type protein taken as 1
[2] = molecular target: T2, PREP1_(1-436), wild-type recombinant …; experiment: as above; conditions: both partners purified

Molecule | binding result [2] | other results
PREP1 HR2m (I122A/L125A/L129A/L132A), TR-FIA (from UniProt P55347 1-436) (natural protein) | – | binding relative to wild type [1]: 30%
B1 | binds | –
B2 | binds | –
B3 | binds | –
B4 | binds | –
B5 | binds | –
B6 | – | binding relative to wild type ([1]; both partners purified): 40%
B7 | binds | –
B8 | binds | –
B9 | binds | –
B10 | binds | –
B11 | binds | –
B12 | binds | –
B13 | binds | –
